Results from patent publication US20150246136A1 (Bayer, published 2015).

T1: C4.4a (Homo sapiens, UniProt O95274 31-326)
T1 sequence (looked up): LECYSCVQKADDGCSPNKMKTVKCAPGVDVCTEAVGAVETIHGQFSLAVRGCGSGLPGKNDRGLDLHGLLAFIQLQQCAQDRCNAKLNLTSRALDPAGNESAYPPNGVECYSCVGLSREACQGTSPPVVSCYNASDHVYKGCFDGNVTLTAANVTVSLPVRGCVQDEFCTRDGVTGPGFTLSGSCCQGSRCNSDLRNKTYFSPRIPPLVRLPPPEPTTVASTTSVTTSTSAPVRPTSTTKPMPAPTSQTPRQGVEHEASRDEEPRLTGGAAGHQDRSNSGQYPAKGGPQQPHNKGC


How the values were obtained:
Assay in all cases: cell-based or functional assay
[1] = molecular target: T1, C4.4a
[2] = molecular target: T2, Carboanhydrase IX (Homo sapiens, UniProt Q16790 38-459)
[3] = molecular target: T2, Carboanhydrase IX; remark: listed apart in the source

| Binder | IC50 (nM) A549: C4.4a [1] [nM] | EC50 (nM) HT29 [2] [nM] | EC50 (nM) SNU-5 [2] [nM] | MIAPaCa 2/CA9+ IC50 [3] [nM] |
| --- | --- | --- | --- | --- |
| Example 211 (antibody, human IgG1, lambda, V domains shown, linker-toxophore on cysteine S) VH: EVQLLESGGGLVQPGGSLRLSCAASGFTFSSAWMSWVRQAPGKGLEWVSYISSSGSTIYYADSVKGRFTISRDNSKNTLYLQMNSLRAEDTAVYYCAREGLWAFDYWGQGTLVTVSS VL: QSVLTQPPSVSGAPGQRVTISCTGSSSNIGAGYVVHWYQQLPGTAPKLLIYDNNKRPSGVPDRFSGSKSGTSASLAISGLRSEDEADYYCAAYDDSLSGPVFGGGTKLTVLG | 0.076 | – | – | – |
| Example 214 (antibody, human IgG1, lambda, V domains shown, linker-toxophore on cysteine S) VH: EVQLLESGGGLVQPGGSLRLSCAASGFTFSSAWMSWVRQAPGKGLEWVSYISSSGSTIYYADSVKGRFTISRDNSKNTLYLQMNSLRAEDTAVYYCAREGLWAFDYWGQGTLVTVSS VL: QSVLTQPPSVSGAPGQRVTISCTGSSSNIGAGYVVHWYQQLPGTAPKLLIYDNNKRPSGVPDRFSGSKSGTSASLAISGLRSEDEADYYCAAYDDSLSGPVFGGGTKLTVLG | 0.04 | – | – | – |
| Example 215 (antibody, human IgG1, lambda, V domains shown, linker-toxophore on cysteine S) VH: EVQLLESGGGLVQPGGSLRLSCAASGFTFSSAWMSWVRQAPGKGLEWVSYISSSGSTIYYADSVKGRFTISRDNSKNTLYLQMNSLRAEDTAVYYCAREGLWAFDYWGQGTLVTVSS VL: QSVLTQPPSVSGAPGQRVTISCTGSSSNIGAGYVVHWYQQLPGTAPKLLIYDNNKRPSGVPDRFSGSKSGTSASLAISGLRSEDEADYYCAAYDDSLSGPVFGGGTKLTVLG | 0.046 | – | – | – |

Second part, the binder after the results:

| IC50 (nM) A549: C4.4a [1] [nM] | EC50 (nM) HT29 [2] [nM] | EC50 (nM) SNU-5 [2] [nM] | MIAPaCa 2/CA9+ IC50 [3] [nM] | Binder |
| --- | --- | --- | --- | --- |
| 0.053 | – | – | – | Example 217 (antibody, human IgG1, lambda, V domains shown, linker-toxophore on cysteine S) VH: EVQLLESGGGLVQPGGSLRLSCAASGFTFSDYQMTWIRQTPGKGLEWVSGISWNGGSTHYADSVKGRFTISRDNSKNTLYLQMNSLRAEDTAVYYCAKGDYLVYSSYYFKSWGQGTLVTVSS VL: not shown |
| – | 66 | 33 | 21 | Example 306 (antibody, human IgG1, kappa, V domains shown, linker-toxophore on lysine NH) VH: QVELVESGGGLVQPGGSLRLSCAASGFTFSSYGMSWVRQAPGKGLEWVSGISSLGSTTYYADSVKGRFTISRDNSKNTLYLQMNSLRAEDTAVYYCARTGSPGTFMHGDHWGQGTLVTVSS VL: DIQMTQSPSSLSASVGDRVTITCRASQDINNYLSWYQQKPGKAPKLLIYGASNLQSGVPSRFSGSGSGTDFTLTISSLQPEDFAVYYCQQYYGRPTTFGQGTKVEIKR |
